Measurements taken from article PMC8466245.

Columns and labels:
[1] = biological target: Glycymeris yessoensis lectin (GYL) (Glycymeris yessoensis); test: SDS-PAGE without and with DTT; 15% separation gel, in the absence and presence of 10 mM DTT; disulfide-linked (covalent) dimer to subunits
[2] = biological target: Glycymeris yessoensis lectin (GYL) (Glycymeris yessoensis); test: MALDI-TOF mass spectrometry; Ultraflex III MALDI-TOF/TOF; singly charged ions of the subunit and of the subunit dimer

Q: “Glycymeris yessoensis lectin (GYL) (natural protein)” was tested. Which stoichiometry N [1] did it give?
A: 2

Q: What about the stoichiometry N [2] of the same substance?
A: 2
